# Experimental data: US5981720
# No end group written: not given here. *: point of attachment. βGlcNAc = CC(=O)N[C@@H]1[C@@H](O)[C@H](O)[C@@H](CO)O[C@H]1*
# Key:
# [1] = target: yeast alpha-glucosidase (yeast)
# [2] = target: yeast alpha-glucosidase (yeast); remark: listed apart in the source
# [3] = target: yeast alpha-glucosidase (yeast); remark: listed apart in the source
# [4] = target: yeast alpha-glucosidase (yeast); conditions: scale: decrease of umole of glucose production from maltose per microgram of protein per hour
binder,measurement,setting,value
"PNGase treated CON-1 (protein, carbohydrate moiety removed with PNGase) SPPGKPQGPPPQGGNQPQGPPPPPGKPQGPPPQGGNKPQGPPPPGKPQGPPPQGDNKSQSARSPPGKPQGPPPQGGNQPQGPPPPPGKPQGPPPQGGNKSQGPPPPGKPQGPPPQGGSKSRSSR",alpha-glucosidase inhibition assay,[1],50 percent
GGN(βGlcNAc)K(pyridoxal 5‑phosphate) [pyridoxal 5-phosphate modified glycopeptide],inhibitory effect on alpha-glucosidase activity (% increase in inhibitory effect),[2],50
GGNK (acetylglucosamine cleaved off the asparagine with N-acetylglucosaminidase) [glycopeptide treated with N-acetylglucosaminidase],inhibitory effect on alpha-glucosidase activity (% of inhibition lost),[2],20
GGN(βGlcNAc)K [synthetic glycopeptide Gylcyl-glycl-(NB-2-(acetylamino)-deoxy-2-B-pyranosyl)-asparaginyl-lysine],inhibitory effect on alpha-glucosidase activity,[3],90%
"CON-1 (protein, glycoprotein; glycosylation occurs at one N-linked site (acetylglucosamine on asparagine of glycine-glycine-asparagine-lysine)) SPPGKPQGPPPQGGNQPQGPPPPPGKPQGPPPQGGNKPQGPPPPGKPQGPPPQGDNKSQSARSPPGKPQGPPPQGGNQPQGPPPPPGKPQGPPPQGGNKSQGPPPPGKPQGPPPQGGSKSRSSR",Specific Inhibitory Activity,[4],2810
